In paper PMC5118228 (EJNMMI Research, 2016):

Assays:
patients = details: in vivo; cited from earlier work
Description: Radiolabeled somatostatin analogs are known to accumulate in the renal proximal tubules, due to their net charge, electrostatic forces, and charge distribution from metal-chelation. This can result in a high absorbed dose and subsequent renal dysfunction.

nontumor-bearing mice = assay type: in vivo; details: control, 4 × 0.3 nmol unlabeled DOTATATE; nontumor-bearing mice; n=8
Method: MTD was defined as the highest dose given to the animals allowing 100% survival with no significant weight loss >15% throughout the experiment. Nontumor-bearing mice were randomly divided into seven cohorts used to evaluate MTD, six treatments and one control (n = 8/cohort); see Table 1. […] Control mice received DOTATATE (4 × 0.3 nmol) on four consecutive days. The animals were followed for 90 days. Serum was analyzed for the biomarker neutrophil gelatinase-associated lipocalin (NGAL) using ELISA (R&D Systems, 450 nm).

| Structure (SMILES) | reduction of renal uptake by co-infusion of L-lysine/L-arginine (patients) | survival at 90 days post-treatment (nontumor-bearing mice) |
| --- | --- | --- |
| C[C@@H](O)[C@H](NC(=O)[C@@H]1CSSC[C@H](NC(=O)[C@@H](Cc2ccccc2)NC(=O)CN2CCN(CC(=O)[O-])CCN(CC(=O)[O-])CCN(CC(=O)[O-])CC2)C(=O)N[C@@H](Cc2ccc(O)cc2)C(=O)N[C@H](Cc2c[nH]c3ccccc23)C(=O)N[C@@H](CCCCN)C(=O)N[C@@H]([C@@H](C)O)C(=O)N1)C(=O)O.[177Lu+3] [^177Lu-DOTATATE, ^177Lu-[DOTA^0,Tyr^3]octreotate] | 30–50% | – |
| C[C@@H](O)[C@H](NC(=O)[C@@H]1CSSC[C@H](NC(=O)[C@@H](Cc2ccccc2)NC(=O)CN2CCN(CC(=O)O)CCN(CC(=O)O)CCN(CC(=O)O)CC2)C(=O)N[C@@H](Cc2ccc(O)cc2)C(=O)N[C@H](Cc2c[nH]c3ccccc23)C(=O)N[C@@H](CCCCN)C(=O)N[C@@H]([C@@H](C)O)C(=O)N1)C(=O)O [DOTATATE] | – | all control animals survived |
